# The DeepSol protein solubility set
# Experiment: soluble on expression in E. coli; label from the status in PepcDB or PDB records
row,Sequence,soluble on expression in E. coli
1,MTASRPAFLHLSPADTVGIALRALPSGEEALGVTLRADVPLGHKFAVVAMPAGTAVVKYGQVMGVATADIAPGDHVHSHNCAMSDSHSNRADAKGTLHAAPGRQTFQGYLRPDGRVGTRNYIGIMASVNCSSTVCNAIAEAANRTLLPRFPGIDGFAPIVHDQGCGMASAGEGFDALVRVLKGYRDHPNFGGVLIVGLGCEVNQLTLYKRTDWTEERIGIFNIQDVGGSASAVRRALELLEPICAAADQDRRSEQPVSKLVLGMQCGGSDGFSGITANPALGVASDMLVAAGGTSILSETPEIYGAEHLLIARADAETGRRIEGMIDWWRDYAAKNGASLDNNPSPGNKRGGLTTILEKSLGAVAKGGLSPLAGAFAYAEPIRIPGLVYMDSPGYDPVAATGQVASGANLIAFTTGRGSCFGAKPAPSIKLASNSDLARRMPEDMDIDCGVVVEEGVSLEEMGRRIYDLLLDTASGKRSKSEEFGYGDNEFVPWKIGATL,not soluble
2,MGSDKIHHHHHHMKIERLDKYIWKIPKEGDMKVDAIIFTDAESVNDPQFREAMKQLMNVATLPGIVKYALAMPDIHWGYGFPIGGVAAFDVKEGIISPGGVGFDINCGVRLMKTDLTYEDVKDRMRSLVEAIYEFVPAGVGSTGDIVLGKKGLRKVLVEGAEWAVKSGYGLEEDLERIEDGGKIHPADPSYVSEEAFERGSDELGTLGAGNHFVEVQMVQEIYDEELAEFFGLEIGTITVMIHSGSRGFGHQVATDYIRLMRDNLKEHNKNLPDKQLINAPFEHPLGQAYYSAMNCAANYAFANREILGHLVRKAFWKVFGRDTRVDLIYDVAHNIAKVEEYEVDGKRRKLVVHRKGATRSLGPGSEKVPSIYREVGQPVIIPGDMGTASYLLVGTKKAEEKTFGSTAHGAGRVLGRSAALKKLDYREVLDELAEKNIVVMSKSKKTLVEEAPEVYKDVDRVVQIVHEIGISRKVARMIPLGVVKG,not soluble
3,MYAVTFDLDTNCLNENAVNLSKVYSDIRKFMEQHGFKWQQGSVYFGDETINAVTCVATVQILAKQIPSFAVCVKDVRMLKIEENNDLMPAIKIVL,not soluble
4,MSLSLLVIGSLAFDDIETPFGRSDNTLGGSSTYIALSASYFTDEPIRMVGVVGSDFGKEHFDLLHAKNIDTRGIQVIEDGKTFRWAGRYHYDMNTRDTLDTQLNVFAEFDPHVPQYYRDSKFVCLGNIDPELQLKVLDQIDDPKLVVCDTMNFWIEGKPEELKKVLARVDVFIVNDSEARLLSGDPNLVKTARIIREMGPKTLIIKKGEHGALLFTDNGIFAAPAFPLESIYDPTGAGDTFAGGFIGHLARCGNTSEAEMRKAVLYGSAMASFCVEQFGPYRYNDLDLLEVDDRYQSFLELSRIEEGHHHHHH,soluble
5,MGGTLLNISPTQHKILKLLIENEKISMREISEKLSVNMSTVSRNFRSLLESGFALKVEEASPGSSGGRKTALYTANPNKFFILGIGVEQNRLIGVVIDAKGNEVEKSEIHRSFRGDEIVNALVDCVEPFKEKYPNTVGISIGMPGIIKENKVIFSSALGIEDLDLGRILSKEFGTEIFVLNDANAAVVGYGFQKKNVVYFLISVPYYLNQPVGVGAGLWLEGSLYQGSNGAAGEFEIDILPSILSGPATLDEVDLKNLSSDSFLKLLSKLSEVASFVSYLLDPETVIFGGDITLFSPEFHSGLAKNVRDHLEKRHISDVEVLFDERGLWTVAFGAAKAFWKRILEDYEFAGKILK,not soluble
6,MGSDKIHHHHHHMTATASSSPKLRVDTRGTNELPPHLDENLLTPRFYVTEFKKAAKTELTDAREEFEAMLSEMKADYNCTHFDRKASLDRLQELPQKAKETYESYLVRSVISEFSGFLLFKEISNRLKKEGNRDLGKLFQFLARDEARHAGFLSRALVAEGIEVDLPHLGGKRAATWFPISWVIYSVYLSEKIGYWRYILMDRHLKANPDQAFAPLFDFFEPWCQDENRHGDCFTVMMRCWPGITKGFRGKLLSRFFLWSVFLTHTLTVCERGEFYELLGIDPKEFDEEVIKRTNHTSKNAFPWVFNLDDNKFWDLRNKIIESFRAFVGAKGLTKPVKFVKFATLIFKQFALPMEKTDALRYDKNVNFTGQDILNFWTDK,not soluble
7,MKAVDQAPKKKSHERKRKEKRVHTGNGTAKKHHKRKSRSKSKNKPKNGLSCCRKKKKKSKKSKSKVTKKQPKKKVIKPLAPVPNEQLGEVVLVKNVKLPETPQKPENDTPVKDGLKPPRTTNSVEKINLSKESFNLSNEKIASDNGTEEKMEKKNVDSPADIQDGLKGKSKQKSEEKVHQKAKDDAKRGDECNKFKISDEKLTKWKLVAQETLKDDANIAVNEFEKVSGYLPPHISKNHFVSNMDKNRFVDVICMDHSRVKLTDSSYIHANWVDLNSSKKAILTQLPLSHTASDFWQMIIDQKIKCVLLIMTDGEFNKFGGNSVFPQNQDFLKFEDRFIRVGEFKQVELGKGWNLKVLSVSNGTYKTFIHVHHYKNWPHGSIPSDVKQIWQVQSYLRKYTDGHPPVYMSMSGCGRAGTFALFETAHMSLHNEQPSLNMVKCLENVRNGRLHSVQNLSQFSVVYTLIAEHVLGNGIGKKDVEEQENSIDNILRQLTIQ,not soluble
8,MSDGQHRAADAVVVGAGLAGLACALDLCRAGWRVALLEASDGVGGRMRTDRRDGFLLDRGFQVFNTSYPQVKRRMELKSLRLRPFTAGVVAHTSNGPVRLADPTREPRAAGTLLPGRALPARDLAALAALTARDAVLPVAVTRRRRDRPTSAALSRVGLSDAAIAGILRPFLSGVFLEDRLETSARFFHLVWRSMVRGSLCLPAEGIGAVPAQLADGLPDGVLRLGTPVAEITDAGVLLGDGGEVPARVVVVATDPATAAGLLPDLTVPDTRTVTTYYHATDSPPTAEPILMVDSTGAILNTCVLSQVAPTYAPPGTGLVSTSVLGTDPPGRAQAVLRRLAELYGTDTSGWEQVAARTVDGALPAMLPPWPLSRTTRIGPGRYVCGDHRATGSVQGALASGTRAAREVRADREPQRLEHHHHHH,soluble
9,SAVVPASLSGQDVGSFAYLTIKDRIPQILTKVIDTLHRHKSEFFEKHGEEGVEAEKKAISLLSKLRNELQTDKPFIRLVEKFVDTDIWNQYLEYQQSLLNESDGKSRWFYSPWLLVECYIDRRIHEAIIQSPPIDYFDVFKESKEQNFYGSQESIIALCTHLQQLIRTIEDLYENQLKDEFFKLLQISLWGNKCDLSLSGGESSSQNTNVLNSLEDLKPFILLNDMEHLWSLLSNCKKTREKASATRVYIVLDNSGFELVTDLILADFLLSSELATEVHFYGKTIPWFVSDTTIHDFNWLIEQVKHSNHKWMSKCGADWEEYIKMGKWVYHNHIFWTLPHEYCAMPQVAPDLYAELQKAHLILFKGDLNYRKLTGDRKWEFSVPFHQALNGFHPAPLCTIRTLKAEIQVGLQPGQGEQLLASEPSWWTTGKYGIFQYDGPL,not soluble
10,SESETRVKSVRTGRKPIGNPEDEQETSKPSDDEFLRGKRVLVVDDNFISRKVATGKLKKMGVSEVEQCDSGKEALRLVTEGLTQREEQGSVDKLPFDYIFMDCQMPEMDGYEATREIRKVEKSYGVRTPIIAVSGHDPGSEEARETIQAGMDAFLDKSLNQLANVIREIESKR,not soluble
11,MGSDKIHHHHHHMDFVDVPAVTRDATILSLRDVSRKLVRELGFMRSTLANSDLAPSAVHAVLEIGMKPGITAKDLATILRLDKSNTSRQIARLEAAGFVERRVSSDDARSSELYLSAEGKSLRARIDRFATSQVSNALRHMAPADQQALLRSLALYANALAQDNAGNAPPATPEAVQIIEGYQPGCIGDIASLHGRFYAAHWGFGAFFEKRVATELAAFAGSLPVDGKALWLYVENGRSLASLAIDGDKTTGIAHLRWFIVDESLHGSGIGRELMARAMRFVETQGFRETHLWTFKGLEAARHLYESHGFRLSEEFEGSQWGTTVTEQRFNRV,not soluble
12,MSLSPARAQEEISRLQQQIKQWDDDYWKEGKSEVEDGVYDQLSARLTQWQRCFGSEPRDVMMPPLNGAVMHPVAHTGVRKMVDKNALSLWMRERSDLWVQPKVDGVAVTLVYRDGKLNKAISRGNGLKGEDWTQKVSLISAVPQTVSGPLANSTLQGEIFLQREGHIQQQMGGINARAKVAGLMMRQDDSDTLNSLGVFVWAWPDGPQLMSDRLKELATAGFTLTQTYTRAVKNADEVARVRNEWWKAELPFVTDGVVVRAAKEPESRHWLPGQAEWLVAWKYQPVAQVAEVKAIQFAVGKSGKISVVASLAPVMLDDKKVQRVNIGSVRRWQEWDIAPGDQILVSLAGQGIPRIDDVVWRGAERTKPTPPENRFNSLTCYFASDVCQEQFISRLVWLGAKQVLGLDGIGEAGWRALHQTHRFEHIFSWLLLTPEQLQNTPGIAKSKSAQLWHQFNLARKQPFTRWVMAMGIPLTRAALNASDERSWSQLLFSTEQFWQQLPGTGSGRARQVIEWKENAQIKKLGSWLAAQQITGFEEGHHHHHH,soluble
13,MFSYSSSDWQRRFDEPEKPSRIIAHHDERGPFAKDRARVLHSAALRRLADKTQVVGPRDGDNPRTRLTHSLEVAQIARGIGTGLGLDADLCEMAGLTHDIGHPPYGHNGEKALAEIAQDCGGFEGNAQTLRILSKLEPKIVDDHDQSYGLNLTRAALDAACKYPRTKTNPDGSVNKKYGCYDEDAHILQWVRQGHEDTSACVEAQAMDFSDDIAYSVHDVEDGIVSGRVHLGVLWDFVELAELAEKGARAFGGTPEALVDAADHLRELPIISAAADFDGSLRGYVDLKAMTSQLVGRYVGAVIEASRAANPTGVFGRSTGQVVVPDQVLAEVTLLKTIAVLYVMDDPTHRQRQDRQRERIYRVYDYLVAGGRGALDPMFRLWWEQAESEAQRQRVIIDNISSMTESRLERVAKQSAELSSFMG,not soluble
14,MMMKSLLMTPLSHRVLKLFCRQTDQRFQKQKNALQQVQREKLQQILKISTLAQAAGVTDYEQFRQQFPVTRYTHWRDRIHECRAQQSTLSNSKLVRYQPTSGSSEQIKFIPYTQAFLDELDAAIAPWLSSMYRKCSTLGQGTHYWSVSWLPESQREVLKNENLNDDSALLGVGKRLLSKFTQTVPSDVSFAAHADDALFATLCYLVADQDLAMISVWSPTFALQLLEKLTEQSHEIALVLETGQWQTRAASLKGVKAPYNSARASLLRQLMKKDTLDYQQLWPKLSLVSSWDTAGSKQWAQLLQSELPFAQFEGKGLWATEGVVTIPYDDLYPLAYHSHFYEFEYLAGEHQGDIIPSWQLKLNDLVSPVLTSGNGLLRYCLDDCLRVTGFYGQVPCFEFQGRRFGVDLVGEKLSPEVAHKLLTRLNQQHIQAISLFAVDTQQQAKPFYAVLVEGEATSPLSVDEIDQALREHFHYELARDLGQLDQPQIFYVDNGWEGYKQVVVREGMIEGNIKPEPLKKVTLSSLEQLSCAESV,not soluble
15,MAIADEFRQLQTRLLECWEGTETFIPELPRGPGGIERDILVVPSLSFPQPELGKITGYTHYEERQLYTLIQLRNPRTRMIYVTSQPLHPSIVDYYLDLLPGVPSCHARDRLLLLATYDRSDKPLTAKILERPRLLERIRQALRPNQAYMVCFNSTPLERELAVRLGVPLYSTDPDLLYWGTKAGSRELFAAAGIRHPIGSGFLQGVPELVRAIAHLQEKCPELQQLVVKLNEAFSGEGNALLDLRPLRPLGSPHTPDHLQRIENSLEDMVFQAPNETWASYRQRFTDLGGIVEAFVEGTVKRSPSVQGCITPKGSVEIVSTHEQLLNAPTGQIFIGCEFPAHADYRQQLQELGQKVGTYLAQQGVIGCFSVDVVATQTTEGWELYAIEINLRKGGTTHPFMTLKFLTDGHYELASGRFYSKHRRPKYYIASDNLCQPHYRGLLPNDLLDMIARYHLHFDSSTETGTVFHLMGALSEFGKLGLVSIGNTPEEAQAIYNQTIGVLDAAALLEHHHHHH,not soluble
16,MSLKDLVVGMELGYPPFEMSDKTGKASGISVDFLEAFAKKNGYKLVVKNIAWDGLIPALKTAKIDLIMSSMTITDKRKKVVDFSIPYAKANLAILTPLNSDITNIKDLDKKGKVLALKRGSTGHLYAVKNLKNATINLFDKENAAILEVIQGKADGFFYDQLTIYRTWQKHQDTTRAILAPFQENPEFWGIAVRKGDEALKDKLDNFIDESRKNGFLDFLGNKYLKDIKEGHHHHHH,soluble
